# Results from the supplement of paper PMC9112550, “Optimization of the antimicrobial peptide Bac7 by deep mutational scanning” (BMC Biology, 2022).
# System: Escherichia coli TOP10
# Assay: shrunken log2 fold change of peptide-encoding DNA abundance (4.5 h post-induction vs induction); higher = less antimicrobial activity (less host growth inhibition)
# Conditions: time post-induction: 4.5 h; library: site-saturation at positions 5, 18, 19, 20
# 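Note: peptides expressed intracellularly from a pBAD plasmid library in pooled LB shake-flask culture, induced with 0.3% L-arabinose, DNA abundance read by NGS, three biological replicates, DESeq2 with apeglm shrinkage.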
row,Sequence,shrunken log2 fold change
1,RRIRCRPPRLPRPRPRPYAAPRP,-0.269
2,RRIRWRPPRLPRPRPRPQGSPRP,-0.00843
3,RRIRPRPPRLPRPRPRPHMEPRP,-0.0417
4,RRIRVRPPRLPRPRPRPYWKPRP,-0.074
5,RRIRHRPPRLPRPRPRPFSGPRP,0.136
6,RRIRHRPPRLPRPRPRPIHGPRP,-0.0135
7,RRIRSRPPRLPRPRPRPMIFPRP,-0.325
8,RRIRERPPRLPRPRPRPEVGPRP,0.0848
9,RRIRHRPPRLPRPRPRPQCKPRP,-0.161
10,RRIRKRPPRLPRPRPRPGVMPRP,0.895
11,RRIRNRPPRLPRPRPRPCSEPRP,-0.231
12,RRIRERPPRLPRPRPRPFLNPRP,-0.0647
13,RRIRFRPPRLPRPRPRPISMPRP,-0.137
14,RRIRSRPPRLPRPRPRPMWRPRP,0.1
15,RRIRPRPPRLPRPRPRPFMRPRP,-0.1
16,RRIRKRPPRLPRPRPRPENIPRP,-0.0813
17,RRIRDRPPRLPRPRPRPYPFPRP,-0.671
18,RRIRFRPPRLPRPRPRPPMGPRP,-0.00833
19,RRIRLRPPRLPRPRPRPGSFPRP,0.236
20,RRIRARPPRLPRPRPRPYVHPRP,-0.728
21,RRIRKRPPRLPRPRPRPGKCPRP,0.0131
22,RRIRSRPPRLPRPRPRPWVCPRP,0.101

row,Sequence,shrunken log2 fold change
1,RRIRNRPPRLPRPRPRPWRQPRP,-0.0337
2,RRIRRRPPRLPRPRPRPSILPRP,0.197
3,RRIRGRPPRLPRPRPRPLIPPRP,-0.0737
4,RRIRSRPPRLPRPRPRPHIWPRP,-0.442
5,RRIRDRPPRLPRPRPRPIYKPRP,-0.175
6,RRIRQRPPRLPRPRPRPRAQPRP,-0.0701
7,RRIRKRPPRLPRPRPRPHPYPRP,-0.0228
8,RRIRRRPPRLPRPRPRPNTCPRP,0.0105
9,RRIRGRPPRLPRPRPRPKVAPRP,0.538
10,RRIRGRPPRLPRPRPRPQFQPRP,0.0768
11,RRIRCRPPRLPRPRPRPCTAPRP,-0.361
12,RRIRSRPPRLPRPRPRPGQLPRP,-0.17
13,RRIRFRPPRLPRPRPRPYMQPRP,-0.68
14,RRIRCRPPRLPRPRPRPPECPRP,0.131
15,RRIRRRPPRLPRPRPRPCCHPRP,-0.345
16,RRIRYRPPRLPRPRPRPYHHPRP,-0.0688
17,RRIRCRPPRLPRPRPRPDPSPRP,-0.0265
18,RRIRFRPPRLPRPRPRPGGSPRP,-0.0392
19,RRIRGRPPRLPRPRPRPQYYPRP,-0.399
20,RRIRARPPRLPRPRPRPNFSPRP,-0.0677
21,RRIRCRPPRLPRPRPRPGKCPRP,-0.173
22,RRIRYRPPRLPRPRPRPYNRPRP,-0.0152

row,Sequence,shrunken log2 fold change
1,RRIRNRPPRLPRPRPRPVDRPRP,0.148
2,RRIRERPPRLPRPRPRPRAVPRP,0.264
3,RRIRPRPPRLPRPRPRPFRFPRP,0.0991
4,RRIRERPPRLPRPRPRPDKQPRP,0.0325
5,RRIRLRPPRLPRPRPRPYKLPRP,-0.0961
6,RRIRRRPPRLPRPRPRPTDVPRP,-0.0348
7,RRIRLRPPRLPRPRPRPDDQPRP,0.101
8,RRIRIRPPRLPRPRPRPHVNPRP,2.48
9,RRIRGRPPRLPRPRPRPRGCPRP,1.37
10,RRIRRRPPRLPRPRPRPATDPRP,0.204
11,RRIRERPPRLPRPRPRPLAIPRP,-0.56
12,RRIRCRPPRLPRPRPRPPDTPRP,0.269
13,RRIRKRPPRLPRPRPRPREYPRP,0.261
14,RRIRARPPRLPRPRPRPGGKPRP,0.563
15,RRIRMRPPRLPRPRPRPKADPRP,2.35
16,RRIRSRPPRLPRPRPRPTEWPRP,0.00483
17,RRIRQRPPRLPRPRPRPVTAPRP,-0.362
18,RRIRIRPPRLPRPRPRPKSLPRP,0.0615
19,RRIRPRPPRLPRPRPRPGTLPRP,0.0426
20,RRIRFRPPRLPRPRPRPAFNPRP,-0.367
21,RRIRDRPPRLPRPRPRPMAGPRP,0.00396
22,RRIRNRPPRLPRPRPRPKKDPRP,0.0489

row,Sequence,shrunken log2 fold change
1,RRIRRRPPRLPRPRPRPFWWPRP,0.528
2,RRIRTRPPRLPRPRPRPCMRPRP,-0.0225
3,RRIRVRPPRLPRPRPRPTNTPRP,-0.175
4,RRIRCRPPRLPRPRPRPDRDPRP,0.108
5,RRIRKRPPRLPRPRPRPGDIPRP,-0.227
6,RRIRHRPPRLPRPRPRPQITPRP,-0.884
7,RRIRWRPPRLPRPRPRPNLPPRP,-0.101
8,RRIRCRPPRLPRPRPRPNHRPRP,-0.233
9,RRIRARPPRLPRPRPRPFMHPRP,0.229
10,RRIRNRPPRLPRPRPRPIPSPRP,0.0499
11,RRIRMRPPRLPRPRPRPSVHPRP,-0.0707
12,RRIRFRPPRLPRPRPRPINRPRP,0.0882
13,RRIRLRPPRLPRPRPRPCGDPRP,-0.00813
14,RRIRDRPPRLPRPRPRPRGSPRP,0.255
15,RRIRTRPPRLPRPRPRPAVPPRP,0.0514
16,RRIRTRPPRLPRPRPRPFFEPRP,0.123
17,RRIRERPPRLPRPRPRPDGDPRP,0.03
18,RRIRLRPPRLPRPRPRPRTGPRP,0.321
19,RRIRVRPPRLPRPRPRPFMSPRP,0.0334
20,RRIRKRPPRLPRPRPRPCQFPRP,-0.117
21,RRIRNRPPRLPRPRPRPRIFPRP,-0.442
22,RRIRGRPPRLPRPRPRPVNCPRP,0.139

row,Sequence,shrunken log2 fold change
1,RRIRFRPPRLPRPRPRPRVRPRP,0.0771
2,RRIRIRPPRLPRPRPRPQRAPRP,-0.249
3,RRIRQRPPRLPRPRPRPQCFPRP,-1.14
4,RRIRQRPPRLPRPRPRPTFIPRP,-0.0494
5,RRIRARPPRLPRPRPRPMPWPRP,0.483
6,RRIRKRPPRLPRPRPRPFCYPRP,-0.14
7,RRIRYRPPRLPRPRPRPIEFPRP,-0.0341
8,RRIRLRPPRLPRPRPRPCNNPRP,-0.0778
9,RRIRLRPPRLPRPRPRPPNDPRP,0.0552
10,RRIRSRPPRLPRPRPRPTIMPRP,-0.508
11,RRIRPRPPRLPRPRPRPGKGPRP,0.0267
12,RRIRDRPPRLPRPRPRPSQSPRP,-0.119
13,RRIRDRPPRLPRPRPRPGWPPRP,0.514
14,RRIRNRPPRLPRPRPRPYRKPRP,-0.0658
15,RRIRDRPPRLPRPRPRPGNHPRP,0.0062
16,RRIRPRPPRLPRPRPRPPSVPRP,0.321
17,RRIRMRPPRLPRPRPRPMEYPRP,0.0305
18,RRIRWRPPRLPRPRPRPNGWPRP,0.185
19,RRIRKRPPRLPRPRPRPQPMPRP,0.462
20,RRIRGRPPRLPRPRPRPNYNPRP,-0.262
21,RRIRIRPPRLPRPRPRPGFWPRP,0.0561
